{"source": "paper doi:10.1101/491043", "about": "(bioRxiv, 2018)", "proteins": {"B1": {"name": "M. tuberculosis ClpX (enzyme)", "chain": "not shown"}}, "target": "the molecule itself", "note": "“And” between values parts separate entries of the source, which are not always exact repeats. Equal values may be shown once."}
{"protein": "B1", "values": [{"measurement": "stoichiometry N", "result": "6 and 2"}]}
